This is an account of results in paper PMC7851962.

The target of the experiment is GFP-EB1-A7 (UniProt Q15691). Briefly: co-IP.
UniProt Q15691, sequence (Q15691 whole entry): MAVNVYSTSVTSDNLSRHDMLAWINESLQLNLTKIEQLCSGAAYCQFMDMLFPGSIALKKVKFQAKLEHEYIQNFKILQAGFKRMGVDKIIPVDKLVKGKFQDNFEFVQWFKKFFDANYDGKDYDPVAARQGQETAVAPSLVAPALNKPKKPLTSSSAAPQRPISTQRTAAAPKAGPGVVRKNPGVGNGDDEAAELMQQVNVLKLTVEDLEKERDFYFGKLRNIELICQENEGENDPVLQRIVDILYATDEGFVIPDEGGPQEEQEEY

B1: Arl4D^WT expressed in COS-7 cells (natural protein)
chain: MGNHLTEMAPTASSFLPHFQALHVVVIGLDSAGKTSLLYRLKFKEFVQSVPTKGFNTEKIRVPLGGSRGITFQVWDVGGQEKLRPLWRSYTRRTDGLVFVVDAAEAERLEEAKVELHRISRASDNQGVPVLVLANKQDQPGALSAAEVEKRLAVRELAAATLTHVQGCSAVDGLGLQQGLERLYEMILKRKKAARGGKKRR
Molecule B1 showed a percent of the amount co-immunoprecipitated with WT EB1 of 50%.
